These are literature values, as cited in paper PMC6978450.

pKd: −log10 of the molar value.

In one data set the target is IL-13Rα2 (Mus musculus) (UniProt O88786).
For the next data set, the target named is IL-13Rα1 (Mus musculus) (UniProt O09030).
Chain of UniProt O09030 (O09030 26-340): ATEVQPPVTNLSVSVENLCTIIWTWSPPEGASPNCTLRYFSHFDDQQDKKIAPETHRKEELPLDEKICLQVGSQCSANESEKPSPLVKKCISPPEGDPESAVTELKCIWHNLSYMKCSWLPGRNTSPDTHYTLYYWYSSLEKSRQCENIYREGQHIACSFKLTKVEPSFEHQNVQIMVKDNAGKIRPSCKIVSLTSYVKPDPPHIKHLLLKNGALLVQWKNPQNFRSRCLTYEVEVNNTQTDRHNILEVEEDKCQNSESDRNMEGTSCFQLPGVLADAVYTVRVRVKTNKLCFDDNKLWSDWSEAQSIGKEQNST

Chain of UniProt O88786 (O88786 22-334): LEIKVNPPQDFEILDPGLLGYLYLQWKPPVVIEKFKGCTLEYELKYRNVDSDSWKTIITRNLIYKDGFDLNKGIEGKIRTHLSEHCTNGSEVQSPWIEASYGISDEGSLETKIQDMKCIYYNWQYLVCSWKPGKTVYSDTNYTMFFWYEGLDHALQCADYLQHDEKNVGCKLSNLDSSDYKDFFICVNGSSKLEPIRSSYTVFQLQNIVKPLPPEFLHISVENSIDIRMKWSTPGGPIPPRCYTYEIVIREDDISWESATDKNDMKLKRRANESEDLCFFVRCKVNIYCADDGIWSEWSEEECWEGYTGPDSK

Regarding IL-13 (from UniProt P20109), the pKd with IL-13Rα2 (Mus musculus) was 9.36; with IL-13Rα1 (Mus musculus) it was 7.52.

A word on the pKd: it is the negative decadic logarithm of the Kd, by convention in mol/L.
